Article PMC4858679, “PCNA is involved in the EndoQ-mediated DNA repair process in Thermococcales” (Scientific Reports, 2016)

T1: Endonuclease Q from Thermococcus kodakarensis, wild type (Thermococcus kodakarensis, UniProt Q5JI33 1-421)
T1 construct: Endonuclease Q (EndoQ), Thermococcus kodakarensis KOD1, locus TK0887, GenBank BAD85076; printed MW 48080.3; the C-terminal truncation removes residues 409-421, so the chain ends at 421; no tag is named; also called TkoEndoQ; TkoEndoQ^WT; source: E. coli, purified (as described previously)
T1 sequence (looked up): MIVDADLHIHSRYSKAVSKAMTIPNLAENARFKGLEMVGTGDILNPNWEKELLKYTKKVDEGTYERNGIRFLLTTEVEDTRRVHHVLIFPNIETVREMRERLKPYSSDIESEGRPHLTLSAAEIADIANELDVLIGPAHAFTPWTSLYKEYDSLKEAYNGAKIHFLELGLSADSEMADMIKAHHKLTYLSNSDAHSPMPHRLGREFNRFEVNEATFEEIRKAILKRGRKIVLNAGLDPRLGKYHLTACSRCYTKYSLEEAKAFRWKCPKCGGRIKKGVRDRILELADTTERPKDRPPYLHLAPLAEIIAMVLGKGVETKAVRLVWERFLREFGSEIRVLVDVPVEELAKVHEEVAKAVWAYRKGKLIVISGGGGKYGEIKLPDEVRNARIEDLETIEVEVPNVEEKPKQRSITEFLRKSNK

T2: Endonuclease Q from Pyrococcus furiosus (Pyrococcus furiosus (endogenous in P. …, UniProt Q8U0N5 1-424))
T2 sequence (looked up): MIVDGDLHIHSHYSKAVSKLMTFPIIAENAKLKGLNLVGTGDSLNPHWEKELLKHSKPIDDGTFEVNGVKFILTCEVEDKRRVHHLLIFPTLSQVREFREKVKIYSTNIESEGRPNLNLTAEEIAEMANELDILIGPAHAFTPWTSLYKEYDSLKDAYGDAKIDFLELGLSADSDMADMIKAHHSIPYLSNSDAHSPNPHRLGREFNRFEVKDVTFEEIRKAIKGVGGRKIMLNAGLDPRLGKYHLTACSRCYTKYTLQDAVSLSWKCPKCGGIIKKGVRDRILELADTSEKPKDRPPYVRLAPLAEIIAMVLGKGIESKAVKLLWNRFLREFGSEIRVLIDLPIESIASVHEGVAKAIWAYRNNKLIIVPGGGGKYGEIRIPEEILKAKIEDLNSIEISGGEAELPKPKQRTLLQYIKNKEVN


Key:
[1] = molecular target: T1, Endonuclease Q from Thermococcus …; test: SPR; Biacore J; TkoPCNA1 immobilised on a CM5 chip, TkoEndoQ injected (12-800 nM, 120 s); 25 °C; 10 mM HEPES pH 7.4, 0.4 M NaCl, 0.005% Tween20; 1:1 reaction model; apparent KD; conditions: both partners purified
[2] = molecular target: the molecule itself; test: SEC; gel filtration of purified TkoPCNA1 proteins; 160 μM
[3] = molecular target: T2, Endonuclease Q from Pyrococcus furiosus; test: cell-based or functional assay

Kd [1] | stimulation of the endonuclease activity of purified PfuEndoQ on dI-containing DNA by purified PfuPCNA (0.18 M NaCl) [3] | Binder | binding result [2]
55 nM |  | Proliferating cell nuclear antigen 1 from Thermococcus kodakarensis, wild type (natural protein, UniProt Q5JF32 1-249, looked up, PCNA1 (DNA polymerase sliding clamp 1), Thermococcus kodakarensis, locus TK0535; printed MW 28239.4; also called TkoPCNA1; TkoPCNA1^WT; source: E. coli, purified (as described previously)) MPFEVVFDGAKEFADLIATASNLIDEAAFKFTEEGISMRAMDPSRVVLIDLNLPESIFSKYEVEEPETIGINMDQFKKILKRGKAKDTLILRKGDENFLEITFEGTAKRTFRLPLIDVEELELELPELPFTAKVVLLGEVLKEGIKDASLVSDAIKFIAKENEFTMKAEGETNEVEIRLTLEDEGLLDLEVEEETKSAYGIRYLSDMVKGIGKADEVILRFGNEMPLQMEYMIRDEGRLTFLLAPRVEE | binds
 | 6 to 7 fold | Proliferating cell nuclear antigen from Pyrococcus furiosus (natural protein, UniProt O73947 1-249, looked up) MPFEIVFEGAKEFAQLIDTASKLIDEAAFKVTEDGISMRAMDPSRVVLIDLNLPSSIFSKYEVVEPETIGVNMDHLKKILKRGKAKDTLILKKGEENFLEITIQGTATRTFRVPLIDVEEMEVDLPELPFTAKVVVLGEVLKDAVKDASLVSDSIKFIARENEFIMKAEGETQEVEIKLTLEDEGLLDIEVQEETKSAYGVSYLSDMVKGLGKADEVTIKFGNEMPMQMEYYIRDEGRLTFLLAPRVEE | 
